Experimental data as given in patent publication US7960513B2, “Antibody against a human ADAM protease” (Monash University, priority 2004, dated 2011).

What was measured:
HEK293 cells [1] = assay: Confocal imaging of co-cultured EphA3-diHcRed/ADAM10 and GFP-ephrin expressing cells; format: cell-based, human; details: co-incubation with GFP-ephrin-A5 or GFP-ephrin-A2 cells for 40 min
Protocol: FIG. 4. Mutation of acidic residues in the ADAM10 Cys-rich domain affects binding to EphA3/ephrin-A5 and cleavage of ephrin-A5. • A. In vitro binding of mutant ADAM10D+C to EphA3/ephrin-A5. ADAM10D+C[EEE-A] containing Alanine substitutions of Glu573, Glu578, Glu579 (lanes 1-4) or ADAM10D+C[RDD-A] (Ala substitutions of Arg525, Asp526, Asp527, lanes 5-8) were incubated alone (lanes 1, 5), or together with EphA3-Fc (lanes 2, 6), ephrin-A5-Fc (lanes 3, 7), or EphA3-Fc and ephrin-A5 (lanes 4, 8). Complexed proteins were extracted with Protein-A-Sepharose beads and analysed as in FIG. 2. • B. Binding of wild-type and mutant ADAM10ΔMP to EphA3 in cells. EphA3/293 cells were transfected with HA-ADAM10ΔMP or HA-ADAM10ΔMP [EEE-A]. Parental and transfected cells were treated for 10 min with or without pre-clustered ephrin-A5-Fc and lysed. Anti-HA and anti-EphA3 immunoprecipitates, and total cell lysates were analysed by Western blotting with indicated antibodies. • C. Ephrin-A5-Fc cleavage in cells expressing wt and 3A mutant ADAM10. EphA3/293 cells were transfected with full length, wild-type (wt) ADAM10, dominant-negative ADAM10ΔMP, or ADAM10 bearing alanine (3A) or 3 lysine (3K) substitutions of Glu573, 578, 579. Following exposure to clustered (+) or non-clustered ? ephrin-A5 Fc, cleaved ephrin was recovered and analysed by Western Blot as described in FIG. 1c. Parallel anti-HA blots of whole-cell lysates reveal the expression levels of ADAM10 constructs. • D. Model of ADAM protein modules and cleavage mechanism. Left, schematic representation of ADAM proteinases protein domain organization; right, schematic representation of the proposed interactions and positioning of ADAM10, EphA3, and Ephrin-A5 between interacting cells, leading to controlled ephrin-cleavage. • E. Ephrin cleavage from the cell surface is blocked by overexpression of 3A-mutant ADAM10. HEK293 cells were co-transfected with (red-fluorescent) EphA3-diHcRed and either wt ADAM10, ADAM10 bearing alanine (3A) substitutions at Glu573, Glu578, and Glu579, or dominant-negative ADAM10ΔMP. […]

HEK293 cells [2] = assay: Confocal imaging of pro-EGF shedding in co-cultured EGFR-GFP/ADAM10 and HA-pro-EGF expressing cells; format: cell-based, human; details: co-incubation with HA-pro-EGF cells for 15 min
Protocol: FIG. 5. Cleavage of cell surface pro-EGF by ADAM10 co-expressed with the EGF receptor requires the intact substrate recognition pocket of ADAM10. HEK293 cells transiently expressing EGFR-GFP and either wild type or 3A mutant ADAM10 (as indicated) were co-incubated with HEK293 cells expressing HA-tagged pro-EGF for 15 min. The cells were then washed, fixed and stained with antibodies against ADAM10 (Alexa^546, red) and HA (Alexa^647, cyan). Arrows indicate EGFR/3A Adam10-expressing cells unable to take up EGF from associated HA-pro-EGF expressing cells (stars); arrowheads indicate cells that have taken up EGF that over-express EGFR and wtAdam10 (bottom panels), or just EGFR (with endogenous Adam10), top panels.
ADAM-mediated ligand cleavage from the cell surface, also referred to as ‘shedding’ has been extensively described as mechanism that facilitates the release of the pro-forms of the EGF-receptor ligands (Blobel, 2005, supra). We were interested to see, if the here described substrate recognition site of ADAM10 would function also to recognise pro-EGF and regulate its shedding from the cell surface. We performed the same confocal imaging approach, using HEK293 cells transfected to express GFP-tagged EGF-receptor, which were co-cultured with cells expressing HA-tagged pro-EGF. […]

B1: ADAM10 [EEE-A] mutant: full-length ADAM10 with alanine substitutions of Glu573, Glu578 and Glu579 (protein)
chain: TTVAEKNTCQLYIQTDHLFFKYYGTREAVIAQISSHVKAIDTIYQTTDFSGIRNISFMVKRIRINTTADEKDPTNPFRFPNIGVEKFLELNSEQNHDDYCLAYVFTDRDFDDGVLGLAWVGAPSGSSGGICEKSKLYSDGKKKSLNTGIITVQNYGSHVPPKVSHITFAHEVGHNFGSPHDSGTECTPGESKNLGQKENGNYIMYARATSGDKLNNNKFSLCSIRNISQVLEKKRNNCFVESGQPICGNGMVEQGEECDCGYSDQCKDECCYDANQPEGKKCKLKPGKQCSPSQGPCCTAHCAFKSKTEKCRDDSDCAKEGICNGITALCPASDPKPNFTDCNRHTQVCINGQCAGSICAKHGLAACTCASSDGKDDKELCHVCCMKKMEPSTCASTGSVQWNKYFLGRTITLQPGSPCNDFRGYCDVFMRCRLVDADGPLARLKKAIFSPELYENIAEWIVAYWWAVLLMGIALIMLMAGFIKICSVHTPSSNPKLPPPKPLPGTLKRRRPPQPIQQPQRQRPRESYQMGHMRR
modifications: left off: small tags and cut ends
notes: full-length ADAM10 with alanine substitutions of Glu573, Glu578 and Glu579
- ephrin cleavage from the cell surface and internalisation (HEK293 cells [1]): absent
- ephrin cleavage from the cell surface and internalisation (HEK293 cells [1]; listed as 3A-mutant ADAM10): blocked
- EGF shedding and uptake into EGF-receptor expressing cells (HEK293 cells [2]): dramatically reduced
